{
  "source": "paper PMC5817196",
  "about": "“DprA from Neisseria meningitidis: properties and role in natural competence for transformation” (Microbiology, 2017)",
  "binders": {"B1": {"name": "C80 (ssDNA)", "DNA": "GCTGATCAACCCTACATGTGTAGGTAACCCTAACCCTAACCCTAAGGACAACCCTAGTGAAGCTTGTAACCCTAGGAGCT"}, "B2": {"name": "GTB25 (ssDNA)", "DNA": "GCCGTCTGAAAGCTCTAGGCCGTCTGAAACGTCAGGCCGTCTGAAAGCTCTAGGCCGTCTGAAACGTCAGGCCGTCTGAA"}, "B3": {"name": "DNA processing chain A from Neisseria meningitidis MC58 (DprANm), recombinant, N-terminal 6xHis-tag (natural protein, UniProt Q9K1K1 1-397, looked up)", "chain": "MTEDERFAWLQLAFTPYIGAESFLLLMRRFGSAQNALSAPAEQVAALIRHKQALEAWRNAEKRALARQAAEAALEWEMRDGCRLMLLQDEDFPEMLTQGLTAPPVLFLRGNVQLLHKPSAAIVGSRHATPQAMRIAKDFGKSLGGKGIPVVSGMASGIDTAAHQGALQAEGGTIAVWGTGIDRIYPPVNKNLAYEIAEKGLIVSEFPIGTRPYAGNFPRRNRLIAALSQVTLVVEAALESGSLITARLAAEMGREVMAVPGSIDNPHSKGCHKLIKDGAKLVECLDDILNECPGLLQNTGASSYSINKGIPEKRITAVQTASDQLSLPEGKMPSEKTENRPVGGSILDRMGFDPVHPDVLAGQLAMPAADLYAALLELELDGSVAAMPGGRYQRIRT", "notes": "DprA (DNA processing chain A) of Neisseria meningitidis strain MC58, locus NMB0116; the dprA gene was amplified with primers EH041 and EH042 and inserted into pET28b(+); Theoretical size of the dimer is printed as 89.6 kDa; also called Nm DprA; source: E. coli ER2566 carrying pMGM1 (pET28b(+)), purified (Ni-NTA, dialysed)"}, "B4": {"name": "dT80 (ssDNA)", "DNA": "TTTTTTTTTTTTTTTTTTTTTTTTTTTTTTTTTTTTTTTTTTTTTTTTTTTTTTTTTTTTTTTTTTTTTTTTTTTTTTTT"}, "B5": {"name": "single-stranded binding protein of Neisseria meningitidis (SSBNm), recombinant (natural protein, UniProt P66848 1-174, looked up)", "chain": "MSLNKVILIGRLGRDPEVRYMPNGEAVCNFSVATSETWNDRNGQRVERTEWHNITMYRKLAEIAGQYLKKGGLVYLEGRIQSRKYQGKDGIERTAYDIVANEMKMLGGRNENSGGAPYEEGYGQSQEAYQRPAQQSRQPASDAPSHPQEAPAAPRRQPVPAAAPVEDIDDDIPF", "modifications": "RED-NHS dye (Monolith NT Protein Labeling kit RED-NHS), degree of labelling 0.3 to 0.6, in the MST experiment only", "notes": "Theoretical size of the tetramer is printed as 83.4 kDa"}},
  "key": {"[1]": {"target": "T1, DprA (DprANm) (Neisseria meningitidis MC58, UniProt Q9K1K1 1-397)", "T1 sequence": "B3 chain", "test": "EMSA; 0.5-80 nM DprA; stronger than dsDNA G80C80 (P=0.034); EMSA: 40 mM Tris-HCl pH 8, 2.5 mM EDTA, 2 mM MgCl2, 100 mg/ml BSA (so in the source), 6% glycerol, 1 mM DTT; 30 min on ice; 5% native PAGE at 4 °C", "settings": "protein: recombinant; tags: N-terminal 6xHis (pET28b, cleavable); chain copies: 2; label: 32P end label"}, "[2]": {"target": "T1, DprA (DprANm)", "test": "EMSA; 20-40 nM DprA; affinity similar to C80; EMSA: 40 mM Tris-HCl pH 8, 2.5 mM EDTA, 2 mM MgCl2, 100 mg/ml BSA (so in the source), 6% glycerol, 1 mM DTT; 30 min on ice; 5% native PAGE at 4 °C", "settings": "protein: recombinant; tags: N-terminal 6xHis (pET28b, cleavable); chain copies: 2; label: 32P end label"}, "[3]": {"target": "the molecule itself", "test": "SEC-MALS; Superdex 200 10/300 GL with Malvern Viscotek UV, RI and static light-scattering detectors; calibrated with BSA; conditions similar to the co-size-exclusion assay; size from the main eluting peak"}, "[4]": {"target": "T1, DprA (DprANm)", "test": "EMSA; 30 nM DprA; complex dissociates easily during electrophoresis; EMSA: 40 mM Tris-HCl pH 8, 2.5 mM EDTA, 2 mM MgCl2, 100 mg/ml BSA (so in the source), 6% glycerol, 1 mM DTT; 30 min on ice; 5% native PAGE at 4 °C", "settings": "protein: recombinant; tags: N-terminal 6xHis (pET28b, cleavable); chain copies: 2; label: 32P"}, "[5]": {"target": "T1, DprA (DprANm)", "test": "EMSA; 30 nM DprA; very stable complex; EMSA: 40 mM Tris-HCl pH 8, 2.5 mM EDTA, 2 mM MgCl2, 100 mg/ml BSA (so in the source), 6% glycerol, 1 mM DTT; 30 min on ice; 5% native PAGE at 4 °C", "settings": "protein: recombinant; tags: N-terminal 6xHis (pET28b, cleavable); chain copies: 2; label: 32P"}, "[6]": {"target": "B3", "test": "MST; RED-NHS-labelled SSBNm (23.6 nM) or SSBNmΔ8C (25.6 nM), DprANm titrated; 20 mM HEPES pH 7.5, 300 mM NaCl, 0.05 % Tween 20, 0.1 % Pluronic F-127, 0.1 % PEG 8000, 2 mM DTT; 22 °C, 20 % MST power, Monolith NT.115", "settings": "both partners purified"}},
  "data": [
    {"binder": "B1", "values": [
      {"measurement": "binding result", "setting": "[1]", "value": "binds"}
    ]},
    {"binder": "B2", "values": [
      {"measurement": "binding result", "setting": "[2]", "value": "binds"}
    ]},
    {"binder": "B3", "values": [
      {"measurement": "stoichiometry N", "setting": "[3]", "value": 2}
    ]},
    {"binder": "TTTTTTTTTTTTTTTTTTTTTTTTTTTTTTTTTTTTTTTT (ssDNA)", "note": "[dT40]", "values": [
      {"measurement": "binding result", "setting": "[4]", "value": "binds"}
    ]},
    {"binder": "B4", "values": [
      {"measurement": "binding result", "setting": "[5]", "value": "binds"}
    ]},
    {"binder": "B5", "values": [
      {"measurement": "stoichiometry N", "setting": "[3]", "value": 4},
      {"measurement": "Kd", "setting": "[6]", "value": "1460 ± 544", "unit": "nM"}
    ]}
  ]
}
